Measured values published in patent US9308238B2, “Compositions and methods for modulating EMT and uses thereof” (Whitehead Institute for Biomedical Research, priority 2010, dated 2016).

B1: SFRP1: Recombinant human SFRP1 protein (R&D Systems), secreted decoy receptor binding canonical and non-canonical Wnt ligands (protein, UniProt Q8N474 32-314, looked up)
Secreted frizzled-related …: SEYDYVSFQSDIGPYQSGRFYTKPPQCVDIPADLRLCHNVGYKKMVLPNLLEHETMAEVKQQASSWVPLLNKNCHAGTQVFLCSLFAPVCLDRPIYPCRWLCEAVRDSCEPVMQFFGFYWPEMLKCDKFPEGDVCIAMTPPNATEASKPQGTTVCPPCDNELKSEAIIEHLCASEFALRMKIKEVKKENGDKKIVPKKKKPLKLGPIKKKDLKKLVLYLKNGADCPCHQLDNLSHHFLIMGRKVKSQYLLTAIHKWDKKNKEFKNFMKKMKNHECPTFQSVFK
B2: BMP4: Recombinant BMP4 protein obtained from Stemgent (protein, UniProt P12644 293-408, looked up)
Bone morphogenetic protein 4: SPKHHSQRARKKNKNCRRHSLYVDFSDVGWNDWIVAPPGYQAFYCHGDCPFPLADHLNSTNHAIVQTLVNSVNSSIPKACCVPTELSAISMLYLDEYDKVVLKNYQEMVVEGCGCR

What was measured:
HTwist cells = assay: Boyden chamber migration assay, HTwist cells (single vs combined proteins); assay type: cell-based, human; settings: DKK1 1 μg/ml, SFRP1, BMP4 0.5 μg/ml
Protocol: Migration and invasion assays. For migration assays, 2×10^4 cells were seeded into 24-well cell culture inserts with 8-μm pores (Boyden Chambers, BD Falcon). […] After 12-48 hr, the cells on the upper surface of the filters were removed with a cotton swab. For visualization, cells on lower filter surfaces were fixed and stained with a Diff-Quick staining kit (Dade Behring).

MSP-RAS cells = assay: Subcutaneous tumorigenicity assay with proteins co-implanted and injected peri-tumorally; assay type: in vivo, mice; settings: subcutaneous limiting dilutions with protein; peri-tumoral injection at 1, 2, 3 and 7 days
Protocol: FIGS. 4A-4G. Autocrine Signaling controls tumorigenicity and metastasis of MSP-RAS cells. (FIG. 4A) Migration assay: RAS-transformed MSP (MSP-RAS) were seeded in Boyden Chamber migration assays and recombinant SFRP1 (1 μg/ml) and BMP4 protein (0.5 μg/ml) were added; *control vs. single treatment, p<1×10^−8, **single vs. double treatment with SFRP1 and BMP4 (S+B), p<1×10^−4, n=3. […] (FIG. 4E) Lung metastasis: fluorescence microscopy images of the major left lung lobe showing GFP-expressing metastatic nodules and quantification of the number of lung surface metastases; *control vs. SFRP1 treatment, p<0.05, **SFRP1 vs. BMP4 or double treatment (S+B), p<0.05, n=5 mice/group. (FIG. 4F) Liver metastasis: fluorescence microscopy images of the liver surface showing GFP-expressing micro-metastatic nodules after implantation of cells as described in (D) and quantification: 5 fields of liver surface were counted per mouse, *control vs. single treatment, p<0.05, **single vs. double treatment (S+B), p<0.05, n=5 mice/group. […]
Animal studies. […] Lung surface metastases were counted using a fluorescent microscope within 3 hr of specimen isolation.

HMLE-iEMT-a cells = assay: Boyden chamber migration assay, iEMT-cells; assay type: cell-based, human; settings: SFRP1 1 μg/ml/d, BMP4 0.5 μg/ml/d; extent comparable to HTwist and MSP cells
Protocol: FIGS. 5A-5H. Concomitant stimulation of Wnt and TGF-beta pathways allows HMLE^24+ cells to enter into a mesenchymal and SC-like state. (FIG. 5A) RT-PCR: N-Cadherin, Zeb1 and Zeb2, L32 was loading control, n=3. Prior RNA isolation, HMLE^24+-shGFP or -shSFRP1 (stable knockdown of SFRP1, FIG. 12A) cells were treated for 3 days with daily doses of indicated factors: anti-DKK1 antibody (10 μg/ml), anti-E-Cadherin antibody (1 μg/ml), TGF-beta 1 (5 ng/ml), Wnt5a (250 ng/ml), (FIG. 5B) Brightfield microscopy: images of control, TGF-beta- and iEMT-cocktail treated HMLE^24+ cells after 14 days of treatment as indicated (see also FIG. 12D). (FIG. 5C) RT-PCR: Zeb1, Zeb2, E-Cadherin and N-Cadherin, L32 was loading control, n=3. After 14 day treatment, cells were expanded in absence of further stimulation for 4 passages. Shown are PBS-treated control HMLE^24+-shGFP and HMLE^24+-shSFRP1 cells, two HMLE^24+-shGFP cultures treated with TGF-beta 1 (TGF-β-a and -b), two HMLE^24+-shSFRP1 cultures treated with the iEMT-cocktail (iEMT-a and -b). […] (FIG. 5G) Lung metastasis: cells expanded for 8 passages after cessation of treatment as described in (C) were transformed with RAS; 1.0×10^5 cells were injected into the mammary fat pads of mice; GFP-labeled metastases on the surface of the lungs were quantified; *control vs. all other groups, p<0.05, n=5 mice/group. […]

Row | Molecule | reduction of migration, single vs combined proteins (HTwist cells) | reduction of tumor incidence (MSP-RAS cells) | effect on migration of iEMT-cells (HMLE-iEMT-a cells)
1 | B1 | 5 fold | at least one order of magnitude | inhibited
2 | B2 | 2 fold | at least one order of magnitude | inhibited
